In IntAct's records for PubMed 19407142:

B1: Abscisic acid receptor PYR1 (Arabidopsis thaliana (Mouse-ear cress)), O49686 (parent)
chain: MPSELTPEERSELKNSIAEFHTYQLDPGSCSSLHAQRIHAPPELVWSIVRRFDKPQTYKHFIKSCSVEQNFEMRVGCTRDVIVISGLPANTSTERLDILDDERRVTGFSIIGGEHRLTNYKSVTTVHRFEKENRIWTVVLESYVVDMPEGNSEDDTRMFADTVVKLNLQKLATVAEAMARNSGDGSGSQVT
B2: Protein phosphatase 2C 56 (Arabidopsis thaliana (Mouse-ear cress)), P49597 (parent)
chain: MEEVSPAIAGPFRPFSETQMDFTGIRLGKGYCNNQYSNQDSENGDLMVSLPETSSCSVSGSHGSESRKVLISRINSPNLNMKESAAADIVVVDISAGDEINGSDITSEKKMISRTESRSLFEFKSVPLYGFTSICGRRPEMEDAVSTIPRFLQSSSGSMLDGRFDPQSAAHFFGVYDGHGGSQVANYCRERMHLALAEEIAKEKPMLCDGDTWLEKWKKALFNSFLRVDSEIESVAPETVGSTSVVAVVFPSHIFVANCGDSRAVLCRGKTALPLSVDHKPDREDEAARIEAAGGKVIQWNGARVFGVLAMSRSIGDRYLKPSIIPDPEVTAVKRVKEDDCLILASDGVWDVMTDEEACEMARKRILLWHKKNAVAGDASLLADERRKEGKDPAAMSAAEYLSKLAIQRGSKDNISVVVVDLKPRRKLKSKPLN
B3: Protein phosphatase 2C 77 (Arabidopsis thaliana (Mouse-ear cress)), O04719 (parent)
chain: MDEVSPAVAVPFRPFTDPHAGLRGYCNGESRVTLPESSCSGDGAMKDSSFEINTRQDSLTSSSSAMAGVDISAGDEINGSDEFDPRSMNQSEKKVLSRTESRSLFEFKCVPLYGVTSICGRRPEMEDSVSTIPRFLQVSSSSLLDGRVTNGFNPHLSAHFFGVYDGHGGSQVANYCRERMHLALTEEIVKEKPEFCDGDTWQEKWKKALFNSFMRVDSEIETVAHAPETVGSTSVVAVVFPTHIFVANCGDSRAVLCRGKTPLALSVDHKPDRDDEAARIEAAGGKVIRWNGARVFGVLAMSRSIGDRYLKPSVIPDPEVTSVRRVKEDDCLILASDGLWDVMTNEEVCDLARKRILLWHKKNAMAGEALLPAEKRGEGKDPAAMSAAEYLSKMALQKGSKDNISVVVVDLKGIRKFKSKSLN

Variants of: B1
Conditions: with HAB1, Q9CAJ0
HAB1, Q9CAJ0, sequence (Q9CAJ0 whole entry): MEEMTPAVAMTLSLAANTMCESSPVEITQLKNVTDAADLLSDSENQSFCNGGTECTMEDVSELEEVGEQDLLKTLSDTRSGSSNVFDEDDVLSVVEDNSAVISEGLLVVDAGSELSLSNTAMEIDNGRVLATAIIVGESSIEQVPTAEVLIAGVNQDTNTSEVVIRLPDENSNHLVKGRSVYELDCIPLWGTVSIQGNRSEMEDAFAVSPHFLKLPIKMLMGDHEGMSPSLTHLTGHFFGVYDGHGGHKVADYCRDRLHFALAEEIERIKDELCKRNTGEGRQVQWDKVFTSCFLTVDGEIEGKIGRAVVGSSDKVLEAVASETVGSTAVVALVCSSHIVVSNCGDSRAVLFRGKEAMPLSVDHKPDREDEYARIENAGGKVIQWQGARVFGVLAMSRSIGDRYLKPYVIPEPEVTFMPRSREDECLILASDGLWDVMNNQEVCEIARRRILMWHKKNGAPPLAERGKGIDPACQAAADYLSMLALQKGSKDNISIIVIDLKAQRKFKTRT

Row | Variant | effect of a mutation on the interaction
1 | P88S | disrupting interaction
2 | S152L | disrupting interaction

Variants of: B2
Conditions: with pyr1_arath PYR1, O49686

Row | Variant | effect of a mutation on the interaction
3 | G180D | decreasing interaction

Variants of: B3
Conditions: with pyr1_arath PYR1, O49686

Row | Variant | effect of a mutation on the interaction
4 | G168D | disrupting interaction
